Key:
[1] = target: human epidermal growth factor receptor 1 (EGFR1), on the surface of HSC-2 and FaDu tumor cells (human) (UniProt P00533); test: flow cytometry, AlexaFluor488-labeled compound 5 ug/ml, 3 h at +37 C, HSC-2 cells; cell surface bound plus internalized, normalized to degree of labeling
[2] = target: human epidermal growth factor receptor 1 (EGFR1), on the surface of HSC-2 and FaDu tumor cells (human) (UniProt P00533); test: flow cytometry, AlexaFluor488-labeled compound 5 ug/ml, 3 h at +37 C, FaDu cells; cell surface bound plus internalized, normalized to degree of labeling
[3] = target: human epidermal growth factor receptor 1 (EGFR1), on the surface of HSC-2 and FaDu tumor cells (human) (UniProt P00533); test: tritium-labeled compound 5 ug/ml, 3 h at +37 C, FaDu cells, scintillation counting of cell lysate; internalized plus cell surface bound; mean +/- S.D. of three

Substance	Normalized mean fluorescence intensity [1]	Normalized mean fluorescence intensity [2]	% internalized/100000 cells [3] [%]
Control-F(ab')2 (F(ab')2 fragment of omalizumab)	823	443	
Control-Fab (Fab fragment of omalizumab)	1160	970	
Control-mAb (omalizumab, anti-IgE) (antibody)	700		0.01

— patent publication US20190240330A1
